We go through one molecule from patent US6689868 (Dana-Farber, dated 2004).

The target in assay [1] is T1, SHPTP2 (endogenous, activated human T cells) (human, UniProt Q06124 2-593).
T1 sequence (looked up): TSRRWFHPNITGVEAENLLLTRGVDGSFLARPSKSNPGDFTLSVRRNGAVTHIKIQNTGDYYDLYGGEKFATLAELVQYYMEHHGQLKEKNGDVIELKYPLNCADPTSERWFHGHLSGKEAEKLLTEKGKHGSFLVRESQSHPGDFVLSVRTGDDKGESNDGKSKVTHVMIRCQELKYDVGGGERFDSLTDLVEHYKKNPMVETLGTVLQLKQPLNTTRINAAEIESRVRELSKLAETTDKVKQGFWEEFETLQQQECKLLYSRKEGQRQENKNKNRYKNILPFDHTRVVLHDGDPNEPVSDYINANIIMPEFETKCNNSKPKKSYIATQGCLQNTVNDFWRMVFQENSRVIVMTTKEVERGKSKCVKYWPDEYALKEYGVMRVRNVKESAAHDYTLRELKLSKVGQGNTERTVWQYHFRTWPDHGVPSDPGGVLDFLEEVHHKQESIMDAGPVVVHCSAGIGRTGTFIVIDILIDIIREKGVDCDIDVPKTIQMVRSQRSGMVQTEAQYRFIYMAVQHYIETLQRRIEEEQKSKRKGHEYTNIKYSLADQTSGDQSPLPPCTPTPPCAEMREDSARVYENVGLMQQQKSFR
Description: co-immunoprecipitation with 8C93D8 from activated human T cell lysates, Western blot. As to the method: (§1) To identify the protein tyrosine phosphatase associated with CD2BP1, activated human T cells were disrupted in lysis buffer at 30 ×10^6/ml and the supernatant collected as described above. After preclearing with control beads (CNBr activated beads linked to nonspecific mouse IgG at 5 mg/ml, Sigma) overnight, the supernatant was diluted to 10 ×10^6 cells/ml in lysis buffer containing 0.1% bovine serum albumin (BSA). CD2BP1 and any associated molecules were immunoprecipitated by incubation at 4° C. for 3 h with CNBr beads coupled to either anti-CD2BP1 mAb 8C93D8 or, as a control, nonspecific mouse IgG. After two washes in lysis buffer and one wash in TBS, the immunocomplexes on the beads were eluted by heating at 65° C. for 20 min in SDS sample buffer and subjected to 12.5% reducing SDS-PAGE. After electrophoresis, proteins on the gel were transferred to nitrocellulose for Western blotting. The membranes were then probed with different primary antibodies: rabbit anti-human PTP-PEST (CSH8) 1:1000 (Garton and Tonks, 1994), rabbit anti-human FLP (aEN12) 1:1000 (Dosil et al., 1996), goat anti-human SHPTP1 (Santa Cruz) 1:100, rabbit antihuman SHPTP2 (Santa Cruz) 1:100, followed by washing and incubation with the secondary HRPO-conjugated goat anti-rabbit antibody (1:5000) or donkey anti-goat antibody (Santa Cruz) 1:2000, and signals developed by ECL. […]
In general terms: In western blotting, separated proteins are transferred to a membrane and probed.

Assay [2] deals with SHPTP1 (endogenous, activated human T cells) (human, UniProt P29350 1-595, limits assumed). The assay is described as above. As to the method: as §1
Chain of SHPTP1 (endogenous, activated human T cells) (P29350 whole entry): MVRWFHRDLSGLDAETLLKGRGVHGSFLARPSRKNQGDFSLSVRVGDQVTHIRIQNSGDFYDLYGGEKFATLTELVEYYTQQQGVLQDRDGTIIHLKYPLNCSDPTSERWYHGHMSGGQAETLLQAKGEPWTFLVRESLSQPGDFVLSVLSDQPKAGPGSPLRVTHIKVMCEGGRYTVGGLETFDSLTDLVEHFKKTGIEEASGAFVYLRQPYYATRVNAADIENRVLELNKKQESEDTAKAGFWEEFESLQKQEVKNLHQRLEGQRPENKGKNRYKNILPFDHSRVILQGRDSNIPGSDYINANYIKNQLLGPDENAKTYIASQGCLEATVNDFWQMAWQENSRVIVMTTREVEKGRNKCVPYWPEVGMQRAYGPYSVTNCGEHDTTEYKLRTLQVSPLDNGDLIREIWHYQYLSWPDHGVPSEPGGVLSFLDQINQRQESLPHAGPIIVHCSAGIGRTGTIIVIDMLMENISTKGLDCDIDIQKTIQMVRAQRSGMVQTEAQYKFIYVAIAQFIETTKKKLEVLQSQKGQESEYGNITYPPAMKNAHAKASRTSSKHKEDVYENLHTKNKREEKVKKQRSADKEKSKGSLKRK

B1: CD2BP1 protein (endogenous, activated human T cells) (other)
chain: MMPQLQFKDAFWCRDFTAHTGYEVLLQRLLDGRKMCKDMEELLRQRAQAEERYGKELVQIARKAGGQTEINSLRASFDSLKQQMENVGSSHIQLALTLREELRSLEEFRERQKEQRKKYEAVMDRVQKSKLSLYKKAMESKKTYEQKCRDADDAEQAFERISANGHQKQVEKSQNKARQCKDSATEAERVYRQSIAQLEKVRAEWEQEHRTTCEAFQLQEFDRLTILRNALWVHSNQLSMQCVKDDELYEEVRLTLEGCSIDADIDSFIQAKSTGTEPPAPVPYQNYYDREVTPLTSSPGIQPSCGMIKRFSGLLHGSPKTTSLAASAASTETLTPTPERNEGVYTAIAVQEIQGNPASPAQEYRALYDYTAQNPDELDLSAGDILEVILEGEDGWWTVERNGQRGFVPGSYLEKL
notes: Endogenous protein
For B1, the binding result in assay [1] and in assay [2] was “no binding” each time.
